Results as given in article doi:10.1101/2025.09.10.672744, “UDP-glucose Activation of a G-protein/Sucrose Synthase Signaling Supercomplex” (bioRxiv, 2025).

Assays:
[1] = target: T1, His-SUS1 (Arabidopsis, UniProt P49040 1-808); assay: MST; sfGFP-RGS1(ΔC-tail) as the fluorescent target, His-SUS1 or His-SUS4 as ligands; NanoTemper Monolith NT.115; conditions: both partners purified
T1 construct: Gateway pDEST17 adds linker residues between the His tag and the protein; also called SUCROSE SYNTHASE 1; source: E. coli ArcticExpress RP, purified (Ni-NTA, Superdex 200 SEC); not shown: 6xHis, N-terminal, kept

[2] = target: T2, His-SUS4 (Arabidopsis, UniProt Q9LXL5 1-808); assay: as above; conditions: both partners purified
T2 construct: Gateway pDEST17 adds linker residues between the His tag and the protein; also called SUCROSE SYNTHASE 4; source: E. coli ArcticExpress RP, purified (Ni-NTA, Superdex 200 SEC); not shown: 6xHis, N-terminal, kept
T2 sequence (Q9LXL5 whole entry): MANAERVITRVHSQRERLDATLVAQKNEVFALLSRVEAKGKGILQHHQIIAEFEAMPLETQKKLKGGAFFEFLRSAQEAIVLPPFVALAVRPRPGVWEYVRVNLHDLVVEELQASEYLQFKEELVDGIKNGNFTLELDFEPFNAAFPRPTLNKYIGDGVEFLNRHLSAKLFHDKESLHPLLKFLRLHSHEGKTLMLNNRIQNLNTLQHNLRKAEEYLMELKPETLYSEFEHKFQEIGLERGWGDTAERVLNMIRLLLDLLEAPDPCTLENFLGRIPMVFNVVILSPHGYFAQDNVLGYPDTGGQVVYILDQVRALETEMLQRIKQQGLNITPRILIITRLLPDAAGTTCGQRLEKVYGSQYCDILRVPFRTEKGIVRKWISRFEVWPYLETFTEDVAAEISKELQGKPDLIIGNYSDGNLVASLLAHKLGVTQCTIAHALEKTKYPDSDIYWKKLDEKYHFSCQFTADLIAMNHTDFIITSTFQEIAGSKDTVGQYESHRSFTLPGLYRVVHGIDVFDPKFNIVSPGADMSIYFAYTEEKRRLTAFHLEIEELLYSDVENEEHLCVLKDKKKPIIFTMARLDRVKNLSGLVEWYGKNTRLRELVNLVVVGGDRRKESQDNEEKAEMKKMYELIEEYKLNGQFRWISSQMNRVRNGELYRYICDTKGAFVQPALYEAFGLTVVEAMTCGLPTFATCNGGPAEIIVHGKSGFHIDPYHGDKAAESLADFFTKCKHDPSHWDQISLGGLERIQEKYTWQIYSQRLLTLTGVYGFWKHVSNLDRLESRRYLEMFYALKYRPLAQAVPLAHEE

T1 sequence (P49040 whole entry): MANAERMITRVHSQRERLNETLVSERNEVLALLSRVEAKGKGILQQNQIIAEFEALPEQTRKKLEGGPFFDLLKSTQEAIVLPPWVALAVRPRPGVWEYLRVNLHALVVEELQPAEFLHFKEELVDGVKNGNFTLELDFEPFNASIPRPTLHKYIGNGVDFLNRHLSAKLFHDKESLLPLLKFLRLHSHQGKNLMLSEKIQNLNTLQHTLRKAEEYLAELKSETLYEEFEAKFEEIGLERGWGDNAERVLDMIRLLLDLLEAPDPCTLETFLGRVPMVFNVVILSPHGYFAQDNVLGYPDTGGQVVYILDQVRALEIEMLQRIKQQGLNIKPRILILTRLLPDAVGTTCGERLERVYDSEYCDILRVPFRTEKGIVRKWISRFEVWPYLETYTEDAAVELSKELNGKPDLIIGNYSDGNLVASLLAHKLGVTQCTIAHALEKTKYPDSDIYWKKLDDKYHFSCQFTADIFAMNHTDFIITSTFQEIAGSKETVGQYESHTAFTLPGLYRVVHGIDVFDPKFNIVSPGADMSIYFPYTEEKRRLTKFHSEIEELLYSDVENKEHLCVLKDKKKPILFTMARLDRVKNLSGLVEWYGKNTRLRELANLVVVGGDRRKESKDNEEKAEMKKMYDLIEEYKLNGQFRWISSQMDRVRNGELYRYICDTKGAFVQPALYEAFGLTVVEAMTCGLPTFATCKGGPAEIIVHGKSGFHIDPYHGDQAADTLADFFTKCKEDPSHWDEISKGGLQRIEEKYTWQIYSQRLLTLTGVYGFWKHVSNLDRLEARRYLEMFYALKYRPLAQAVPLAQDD

B1: HA–Flag–10xHis–sfGFP–TEV–Optimized–RGS1(ΔC-tail) (domain or fragment)
chain: MASGCALHGGCPSDYVAVAISVICFFVLLSRSVLPCLIHKAPRTNSSSFWIPVIQVISSFNLLFSIMMSVNLLRFRTKHWWRYCYLWAVWIEGPLGFGLLMSCRITQAFQLYFIFVKKRLPPVKSYIFLPLVLLPWIFGAAIIHATKPLNDKCHMGLQWTFPVAGLHALYVLALIAFTRAVRHVEFRFDELRDLWKGILVSATSIVIWVTAFVLNEIHEEISWLQVASRFVLLVTGGILVVVFFSISSNQPLLSQISLKKRQNFEFQRMGQALGIPDSGLLFRKEEFRPVDPNEPLDKLLLNKRFRHSFMEFADSCYAGETLHFFEEVYEHGKIPEDDSIRRIYMARHIMEKFIVAGAEMELNLSHKTRQEILTTQDLTHTDLFKNALNEVMQLIKMNLVRDYWSSIYFIKFKEEESCHEAMHKEGY
Kd [1]: 161 ± 9 nM | Kd [2]: 106 ± 3 nM
